IntAct's records for PubMed 23452855

B1: F-box/LRR-repeat protein 21 (Mus musculus), Q8BFZ4 (parent)
chain: MKRNNFSAVNKVVQSSPVVKQPKRGLCSSLRQTHALSVLLDWGTLPHHVILQIFQYLPLIDRARASSVCRRWNEVFHIPDLWRKFEFELNQSATSYFKSTHPDLIQQIIKKHAAHLQYVSFKVDSSTESAEAACDILSQLVNCSIQTLGLISTAKPSFMNVPKSHFVSALTVVFVNSKSLSSIKIEDTPVDDPSLKILVANNSDTLRLLKMSSCPHVSSDGILCVADHCQGLRELALNYYILSDEILLALSSETHVNLEHLRIDVVSENPGQIKFHSIKKRSWDALIKHSPRVNVVMYFFLYEEEFEAFFKEETPVTHLYFGRSVSRAILGRIGLNCPRLIELVVCANGLLPLDSELIRIAKHCKNLTSLGLSECEVSCSAFVEFVRLCGRRLTQLSIMEEVLVPDDRYTPDEVHTEVSKHLGRVWFPDVMPIW
partner: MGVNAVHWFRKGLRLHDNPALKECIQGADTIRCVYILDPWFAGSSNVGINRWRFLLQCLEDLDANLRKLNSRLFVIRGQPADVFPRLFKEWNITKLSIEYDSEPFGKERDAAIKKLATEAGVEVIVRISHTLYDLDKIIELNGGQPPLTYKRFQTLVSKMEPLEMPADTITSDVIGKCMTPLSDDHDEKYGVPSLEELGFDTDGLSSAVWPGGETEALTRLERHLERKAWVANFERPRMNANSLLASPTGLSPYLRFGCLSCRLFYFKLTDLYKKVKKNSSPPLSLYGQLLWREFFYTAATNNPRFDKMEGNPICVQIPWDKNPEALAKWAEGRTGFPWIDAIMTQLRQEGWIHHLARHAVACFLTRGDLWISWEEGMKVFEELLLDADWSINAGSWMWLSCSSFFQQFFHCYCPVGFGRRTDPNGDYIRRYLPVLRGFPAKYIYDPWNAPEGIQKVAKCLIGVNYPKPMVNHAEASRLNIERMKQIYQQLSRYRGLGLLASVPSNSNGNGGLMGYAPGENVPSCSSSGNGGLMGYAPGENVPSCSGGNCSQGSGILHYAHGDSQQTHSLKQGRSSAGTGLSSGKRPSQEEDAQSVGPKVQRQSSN

Variants of: B1
Settings: with cry1_mouse Cry1, P97784

| effect of a mutation on the interaction | Variant |
| --- | --- |
| decreasing interaction strength | G149E |
